Assay [1] deals with T1, human FcγRIa extracellular domain with C-terminal His-tag (human, UniProt P12314 16-292).
T1 construct: extracellular domain; also called hFcγR Ia; hFcγRIa
The assay is described as follows: SPR Biacore T200, Ab captured via Fab-lambda, pH 7.4, 25C.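 Also: antibodies captured on a streptavidin chip carrying biotinylated anti-Fab-lambda, with each FcγR injected as analyte in phosphate buffer. KD fitted by 1:1 Langmuir or steady-state model depending on receptor.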 A general note: In SPR one partner is held on a chip, and binding of the other changes the refractive index at the surface.

The target in assay [2] is T2, human FcγRIIa R allotype extracellular domain with C-terminal His-tag (human, UniProt P12318 34-217).
T2 construct: extracellular domain; also called hFcγR IIa R
T2 sequence (looked up): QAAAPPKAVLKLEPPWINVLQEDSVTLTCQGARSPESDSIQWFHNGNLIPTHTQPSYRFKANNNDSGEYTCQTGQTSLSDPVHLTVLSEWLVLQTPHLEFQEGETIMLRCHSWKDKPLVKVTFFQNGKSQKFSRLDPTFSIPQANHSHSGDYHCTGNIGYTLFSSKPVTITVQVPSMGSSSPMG
Described as above.

Assay [3] addresses T3, human FcγRIIa H allotype extracellular domain with C-terminal His-tag (human, UniProt P12318 34-217).
T3 construct: extracellular domain; also called hFcγR IIa H
T3 sequence (looked up): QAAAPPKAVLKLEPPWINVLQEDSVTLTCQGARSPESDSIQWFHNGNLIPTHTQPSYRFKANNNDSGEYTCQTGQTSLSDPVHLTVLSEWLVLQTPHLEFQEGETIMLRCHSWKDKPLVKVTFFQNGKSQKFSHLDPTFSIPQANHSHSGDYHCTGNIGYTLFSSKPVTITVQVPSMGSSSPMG
The description is as above.

Assay [4] has as its target T4, human FcγRIIIa F allotype extracellular domain with C-terminal His-tag (human, UniProt P08637 17-208).
T4 construct: extracellular domain; also called hFcγR IIIa F
Described as above.

In assay [5] the target is T5, human FcγRIIIa V allotype extracellular domain with C-terminal His-tag (human, UniProt P08637 17-208).
T5 construct: extracellular domain; also called hFcγR IIIa V
The assay is described as above.

Assay [6] concerns the target T6, human FcγRIIb extracellular domain with C-terminal His-tag (human, UniProt P31994 43-217).
T6 construct: extracellular domain; also called hFcγR IIb
T6 sequence (looked up): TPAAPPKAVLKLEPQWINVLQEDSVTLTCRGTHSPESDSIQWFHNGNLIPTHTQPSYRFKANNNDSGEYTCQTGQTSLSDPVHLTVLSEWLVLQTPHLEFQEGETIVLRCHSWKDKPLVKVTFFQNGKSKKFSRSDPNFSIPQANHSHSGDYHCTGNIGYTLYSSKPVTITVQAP
Briefly: SPR; FcγRIIb at 1000 nM, bound amount per unit captured Ab.
Protocol: The interaction between the generated antibodies and human FcγRs was analyzed by the following method using Biacore T200. 50 mM Na-Phosphate, 150 mM NaCl, 0.05% Tween20 (pH 7.4) was used as the running buffer, and the assay was performed at 25° C. For the sensor chips, Series S SA (GE Healthcare) chips onto which CaptureSelect Human Fab-lambda Kinetics Biotin Conjugate (Thermo Fisher Scientific) was immobilized were used. The antibodies of interest were captured onto these chips and each FcγR diluted in the running buffer was allowed to interact with them. Chips were regenerated with 10 mM Glycine-HCl (pH 1.5) and 25 mM NaOH, and assay was performed by repeatedly capturing antibodies. The dissociation constants KD (mol/L) for FcγRs of each antibody were calculated using Biacore T200 Evaluation Software 2.0, using the 1:1 Langmuir binding model for FcγRIa and FcγRIIIa and the steady state affinity model for FcγRIIa. For FcγRIIb, the binding amount of FcγRIIb per unit amount of antibody was calculated by correcting the binding amount of FcγRIIb obtained from the sensorgram obtained by the measurement with the amount of antibody captured onto the chip surface.

Assay [7] addresses T7, human FcRn (human, UniProt P55899 24-290; P61769 21-119).
T7 construct: Prepared by the method of WO 2010/107110; also called hFcRn
The assay is described as follows: SPR; KD of 04H1637-G1m/04L1610-lam1 divided by KD of variant.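 Also: biacore T200 SPR at 25 °C, antibodies captured on anti-Fab-lambda SA chip with receptor as analyte, running buffer pH 7.4 for FcγRs and pH 6.0 for FcRn.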

Assay [8] concerns the target T1, human FcγRIa extracellular domain with …. Described as above.
In assay [9] the target is T2, human FcγRIIa R allotype extracellular …. Described as above.
Assay [10] concerns the target T3, human FcγRIIa H allotype extracellular …. The assay is described as above.
The target of assay [11] is T4, human FcγRIIIa F allotype extracellular …. The description is as above.
The target of assay [12] is T5, human FcγRIIIa V allotype extracellular …. The assay is described as above.
Assay [13] deals with T6, human FcγRIIb extracellular domain with …. The assay is described as follows: SPR; binding amount divided by that of 04H1637-G1m/04L1610-lam1.
Assay [14] has as its target T7, human FcRn. The assay is described as follows: SPR Biacore T200, Ab captured via Fab-lambda, pH 6.0, 25C, steady state.
Protocol: The interaction between the generated antibodies and human FcRn was analyzed by the following method using Biacore T200. 50 mM Na-Phosphate, 150 mM NaCl, 0.05% Tween20 (pH 6.0) was used as the running buffer, and the assay was performed at 25° C. For the sensor chip, Series S SA (GE Healthcare) chips onto which CaptureSelect Human Fab-lambda Kinetics Biotin Conjugate (Thermo Fisher Scientific) was immobilized were used. The antibodies of interest were captured onto these chips and FcRn diluted in the running buffer was allowed to interact with them. Chips were regenerated with 10 mM Glycine-HCl (pH 1.5) and 25 mM NaOH, and assay was performed by repeatedly capturing antibodies. The dissociation constant for FcRn of each antibody was calculated using the steady state model, using Biacore T200 Evaluation Software 2.0.

T1 sequence (P12314 16-292): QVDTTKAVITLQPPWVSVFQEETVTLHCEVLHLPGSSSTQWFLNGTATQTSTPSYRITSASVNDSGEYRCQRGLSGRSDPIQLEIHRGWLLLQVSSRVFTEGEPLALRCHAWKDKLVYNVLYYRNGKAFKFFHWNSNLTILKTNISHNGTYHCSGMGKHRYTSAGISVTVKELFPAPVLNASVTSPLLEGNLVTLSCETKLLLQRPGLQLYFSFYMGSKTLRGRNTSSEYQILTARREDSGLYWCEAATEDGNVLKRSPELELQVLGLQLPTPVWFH
T5 sequence (P08637 17-208 F176V): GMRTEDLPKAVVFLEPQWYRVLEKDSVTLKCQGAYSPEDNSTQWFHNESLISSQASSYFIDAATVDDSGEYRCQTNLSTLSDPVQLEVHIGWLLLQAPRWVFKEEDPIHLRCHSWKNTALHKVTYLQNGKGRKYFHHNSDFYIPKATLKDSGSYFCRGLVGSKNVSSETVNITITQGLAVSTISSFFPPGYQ
T4 sequence (P08637 17-208): as the sequence (P08637 17-208 F176V) above, with V160F counted along it
T7 sequence (P55899 24-290 limits assumed, chain 1 of 2): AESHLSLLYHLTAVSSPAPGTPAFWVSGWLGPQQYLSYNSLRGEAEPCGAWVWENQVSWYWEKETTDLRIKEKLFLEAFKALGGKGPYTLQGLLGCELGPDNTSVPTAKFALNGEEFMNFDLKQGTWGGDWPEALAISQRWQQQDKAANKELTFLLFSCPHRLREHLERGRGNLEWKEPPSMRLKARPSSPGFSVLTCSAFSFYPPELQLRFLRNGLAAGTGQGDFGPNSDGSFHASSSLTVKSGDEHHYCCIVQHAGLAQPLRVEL
T7 sequence (P61769 21-119 limits assumed, chain 2 of 2): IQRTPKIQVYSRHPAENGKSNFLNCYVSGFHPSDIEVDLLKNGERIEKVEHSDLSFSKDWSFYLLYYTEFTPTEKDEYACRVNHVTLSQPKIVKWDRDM

B1: 04H1654-KT462/04L1610-lam1//04H1656-HT445/04L1610-lam1 (antibody, human IgG1, lambda)
heavy 1: QVQLVESGGGVVQPGGSLRLSCAASGFTFSSKTMNWVRQAPGKGLEWVSSISTQSHYIYYARSVRGRFTISRDNAKNSLYLQMNSLRAEDTAVYYCARYGKREDMLWVFDYWGQGTLVTVSSASTKGPSVFPLAPSSKSTSGGTAALGCLVKDYFPEPVTVSWNSGALTSGVHTFPAVLQSSGLYSLSSVVTVPSSSLGTQTYICNVNHKPSNTKVDKRVEPKSCDKTHTCPPCPAPEFQWGPMVFLFPPKPKDVLMISRTPEVTCVVVDVSDEEPEVKFNWYVDGVEVHNAKTKPREEQYNATYRVVSVLPVLHQDWLNGKEYKCKVSNDALPAPIEKTISKAKGQPREPQVYTLPPSRKEMTKNQVSLTCLVKGFYPSDIAVEWESNGQPENNYKTTPPVLDSDGSFFLYSKLTVDKSRWQQGNVFSCSVMHEALHNHYTQKSLSLSP
heavy 2: QVQLVESGGGVVQPGGSLRLSCAASGFTFSSKTMNWVRQAPGKGLEWVSSISTQSHYIYYAESVRGRFTISRDNAKNSLYLQMNSLRAEDTAVYYCARYGAREDMLWVFDYWGQGTLVTVSSASTKGPSVFPLAPSSKSTSGGTAALGCLVKDYFPEPVTVSWNSGALTSGVHTFPAVLQSSGLYSLSSVVTVPSSSLGTQTYICNVNHKPSNTKVDKRVEPKSCDKTHTCPPCPAPELLAGPSVFLFPPKPKDVLMISRTPEVTCVVVDVSHEEPEVKFNWYVDGVEVHNAKTKPREEQYNATYRVVSVLPVLHQDWLNGKEYKCKVSNDALPKPDEETISKAKGQPREPQVYTLPPSREEMTKNQVSLTCLVKGFYPSDIAVEWESNGQPENNYKTTPPVLDSDGSFFLYSKLTVDKSRWQQGNVFSCSVMHEALHNHYTQESLSLSP
light: QSALTQPPSASGSPGQSVTISCEGPSTGVGDYNWVHWYQQHPGKAPKLMIYFTSKKPSGVPDRFSGSKSGNTASLTVSGLQAEDEADYYCQTYAAPLGPMFGGGTKLTVLGQPKAAPSVTLFPPSSEELQANKATLVCLISDFYPGAVTVAWKADSSPVKAGVETTTPSKQSNNKYAASSYLSLTPEQWKSHRSYSCQVTHEGSTVEKTVAPTECS
notes: Heterodimerized antibody, IGHG1*03 constant region, E356K / K439E
B1: the Kd in assay [1] stood at 0.03 nM; in assay [2], 160 nM; in [3] it was 110 nM; in assay [4], 3.3 nM; in [5], 2.2 nM; in [14], 1500 nM. For the same molecule, in assay [6], the Binding amount turned out to be 0.025. In assay [7], the “Relative value to KD between G1m and hFcRn” value amounted to 0.9. The “Relative value to KD between G1m and hFcγRs” value in assay [8] was determined as 1.6; in assay [9], 13; in assay [10], 13.9; in [11] it was 415; in assay [12], 110. The Relative binding amount in [13] came to 3.1.

B2: 04H1654-KT461/04L1610-lam1//04H1656-HT443/04L1610-lam1 (antibody, human IgG1, lambda)
heavy 1: QVQLVESGGGVVQPGGSLRLSCAASGFTFSSKTMNWVRQAPGKGLEWVSSISTQSHYIYYARSVRGRFTISRDNAKNSLYLQMNSLRAEDTAVYYCARYGKREDMLWVFDYWGQGTLVTVSSASTKGPSVFPLAPSSKSTSGGTAALGCLVKDYFPEPVTVSWNSGALTSGVHTFPAVLQSSGLYSLSSVVTVPSSSLGTQTYICNVNHKPSNTKVDKRVEPKSCDKTHTCPPCPAPEFQWGPMVFLFPPKPKDVLMISRTPEVTCVVVDVSDEEPEVKFNWYVDGVEVHNAKTKPREEQYNATYRVVSVLPVLHQDWLNGKEYKCKVSNDALPAPEEKTISKAKGQPREPQVYTLPPSRKEMTKNQVSLTCLVKGFYPSDIAVEWESNGQPENNYKTTPPVLDSDGSFFLYSKLTVDKSRWQQGNVFSCSVMHEALHNHYTQKSLSLSP
heavy 2: QVQLVESGGGVVQPGGSLRLSCAASGFTFSSKTMNWVRQAPGKGLEWVSSISTQSHYIYYAESVRGRFTISRDNAKNSLYLQMNSLRAEDTAVYYCARYGAREDMLWVFDYWGQGTLVTVSSASTKGPSVFPLAPSSKSTSGGTAALGCLVKDYFPEPVTVSWNSGALTSGVHTFPAVLQSSGLYSLSSVVTVPSSSLGTQTYICNVNHKPSNTKVDKRVEPKSCDKTHTCPPCPAPELLAGPSVFLFPPKPKDVLMISRTPEVTCVVVDVSHEEPEVKFNWYVDGVEVHNAKTKPREEQYNATYRVVSVLPVLHQDWLNGKEYKCKVSNDALPAPEEETISKAKGQPREPQVYTLPPSREEMTKNQVSLTCLVKGFYPSDIAVEWESNGQPENNYKTTPPVLDSDGSFFLYSKLTVDKSRWQQGNVFSCSVMHEALHNHYTQESLSLSP
light: QSALTQPPSASGSPGQSVTISCEGPSTGVGDYNWVHWYQQHPGKAPKLMIYFTSKKPSGVPDRFSGSKSGNTASLTVSGLQAEDEADYYCQTYAAPLGPMFGGGTKLTVLGQPKAAPSVTLFPPSSEELQANKATLVCLISDFYPGAVTVAWKADSSPVKAGVETTTPSKQSNNKYAASSYLSLTPEQWKSHRSYSCQVTHEGSTVEKTVAPTECS
notes: Heterodimerized antibody
Consider B2, for which the Kd in assay [1] amounted to 0.032 nM; in assay [2], 240 nM; in assay [3] it was 200 nM; in [4] it was 2.6 nM; in [5] it was 1.5 nM; in [14], 1500 nM. The Binding amount in assay [6] worked out at 0.025. For the same molecule, in assay [7], the “Relative value to KD between G1m and hFcRn” value is 0.9. Besides, the “Relative value to KD between G1m and hFcγRs” value in assay [8] came out at 1.5; in assay [9], 8.4; in assay [10], 7.3; in assay [11] it was 526; in assay [12], 156. Moreover, the Relative binding amount in [13] came out at 3.1.

Broadly, the Kd is the free concentration of one partner at which half of the binding sites on the other are occupied at equilibrium, for simple one-to-one binding.

Values taken from patent US20260022175A1 (Chugai, published 2026).
